# Test results from patent US9458189B2, “Ligation of stapled polypeptides” (President and Fellows of Harvard College, priority 2008, dated 2016).
# Primed or numbered codes have the meaning given here. No end group written: not given here. *: point of attachment. FITC = O=C1OC2(c3ccc(O)cc3Oc3cc(O)ccc32)c2ccc(NC(=S)*)cc21; PEG3′ = not defined here
# Experiment: Circular dichroism of Max basic region peptides
# Format: physicochemical
# Conditions: circular dichroism wavelength scans; 100 uM peptide in water
# Description: Each of the synthesized peptides were purified by HPLC and biochemically characterized. Each peptide was diluted in water to a final concentration of 100 uM using the extinction coefficient of FITC at 495 nm in 50 mM NaH2PO4, pH 8.0. […] One peptide, i, i+4 version 1, was chosen to be synthesized so as to contain a C-terminal thioester. The peptide was synthesized using t-Boc chemistry on 3-S-trityl-mercaptopropionyl resin. The peptide was purified by HPLC and the desired product was confirmed by LC/MS analysis.
substance,measurement,value
"unmodified basic region peptide: unmodified DNA binding basic region of Max (RAHHNALERKRR, SEQ ID NO: 2) with N-terminal PEG-3 linker and FITC ({FITC-PEG3′}-RAHHNALERKRR)",CD profile (secondary structure in solution),disordered in solution
